Assay results published in paper PMC4660432.

Experiments:
[1] = system: TAF1 double bromodomain (TAF1-BrD); assay: EMSA; details: EMSA: 20 mM Tris-HCl pH 7.5, 40 mM NaCl, 0.75 mM EDTA, 1 mM DTT, 1 h at 25 C, 2.5 pmol NCP, 5% native PAGE in 0.2x TBE
[2] = target: K12-acetylated nucleosome core particle (human) (UniProt P04908); assay: native gel or EMSA; 2.5 pmol NCP mixed with the TAF1-BrD at the indicated ratios; 20 mM Tris-HCl pH 7.5, 40 mM NaCl, 0.75 mM EDTA, 1 mM DTT; 1 hr at 25 °C; native 5% PAGE in 0.2x TBE; densitometry; dissociation constants estimated from triplicates
[3] = target: K16-acetylated nucleosome core particle (human) (UniProt P04908); assay: as above
[4] = target: K5/K8-di-acetylated nucleosome core particle (human) (UniProt P04908); assay: as above
[5] = target: K5/K8/K12/K16-tetra-acetylated nucleosome core particle (biochemical analyses; N11-thrombin-tagged H4) (human) (UniProt P04908); assay: as above
[6] = target: unmodified nucleosome core particle (biochemical analyses; N11-thrombin-tagged H4) (human) (UniProt P04908); assay: as above

Work on H4-K5/K8-di-acetylated NCP yielded a Kd ([1]; histone H4 K5ac, K8ac) of 6.1 µM.

H4-K5/K8/K12/K16-tetra-acetylated NCP showed a Kd ([1]; histone H4 K5ac, K8ac, K12ac, K16ac) of 3.9 µM.

For H4-K12ac NCP, the Kd ([1]; histone H4 K12ac) was 12.3 µM.

With H4-K16ac NCP the Kd ([1]; histone H4 K16ac) was 13.3 µM.

Substance “TAF1 double bromodomain (from UniProt P21675 1-1893) (domain or fragment)” has a Kd [2] of 12.3 µM, a Kd [3] of 13.3 µM and a Kd [4] of 6.1 µM. The Kd [5] was 3.9 µM and the Kd [6] was 19.3 µM.

unmodified NCP gave a Kd [1] of 19.3 µM.
